PMC9352680, “A comprehensive thermodynamic model for RNA binding by the Saccharomyces cerevisiae Pumilio protein PUF4”

T1: PUF4 RNA-binding domain (Saccharomyces cerevisiae, UniProt P25339 537-888)
T1 sequence: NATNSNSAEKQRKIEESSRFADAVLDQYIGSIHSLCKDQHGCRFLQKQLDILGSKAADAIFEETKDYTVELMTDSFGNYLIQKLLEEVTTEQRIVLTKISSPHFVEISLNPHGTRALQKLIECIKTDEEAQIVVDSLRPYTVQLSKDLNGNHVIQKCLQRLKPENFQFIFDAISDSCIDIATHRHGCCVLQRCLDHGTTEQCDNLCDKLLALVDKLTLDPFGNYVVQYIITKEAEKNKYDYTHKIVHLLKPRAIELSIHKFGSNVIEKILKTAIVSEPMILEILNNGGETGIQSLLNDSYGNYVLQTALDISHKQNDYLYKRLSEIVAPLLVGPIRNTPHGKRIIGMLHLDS


Molecular target: T1, PUF4 RNA-binding domain
Assay: Mg; RNA-MaP; 20 mM Na-HEPES pH 7.4, 30 mM KOAc, 0.75 mM MgCl2, 0.1% Tween-20, 5% glycerol, 0.1 mg/mL BSA, 2 mM DTT; 25 C; 0.0125-409.6 nM protein
Conditions: tags: N-His6-TEV cleaved; C-SNAP kept, Cy3B-labelled; label: tethered on chip by stalled RNA polymerase

| Binder | Kd [nM] |
| --- | --- |
| UCUCUUUGUAUAUAUUCUCUU (ssRNA) [Ic_S1_P4E.1_K4.1_C4.1_H4.1_A4.1_F4.1_[T8A]_[A9T]_T4.1] | 3.56 |
| Ic_S2_P5E.1_K5.1_C5.1_H5.1_A5.1_[T6C]_[A7C]_F5.1_[T8G]_[T9C]_[A10T]_T5.1 (ssRNA) RNA: UUUGAUUAAUAUGAUAUCGUUCUUUCUUGUAUCCGCUUUCUUUCUCGAUAUCAUAUUAAUCUUU | 596 |
| Ic_S2_P5E.1_K5.1_C5.1_H5.1_A5.1_[T5A]_[A7C]_F5.1_[T8A]_[T9C]_[A10C]_T5.1 (ssRNA) RNA: UUUGAUUAAUAUGAUAUCGUUCUUUCUUGUAAUCACCUUCUUUCUCGAUAUCAUAUUAAUCUUU | 545 |
| Ic_S2_P5E.1_K5.1_C5.1_H5.1_A5.1_[T5C]_[T6A]_[A7T]_F5.1_[T8G]_[T9G]_[A10T]_T5.1 (ssRNA) RNA: UUUGAUUAAUAUGAUAUCGUUCUUUCUUGUACAUGGUUUCUUUCUCGAUAUCAUAUUAAUCUUU | 45.8 |
| Ic_S2_P5E.1_K5.1_C5.1_H5.1_A5.1_[A7C]_F5.1_[T8C]_[T9C]_[A10T]_T5.1 (ssRNA) RNA: UUUGAUUAAUAUGAUAUCGUUCUUUCUUGUAUUCCCUUUCUUUCUCGAUAUCAUAUUAAUCUUU | 142 |
| Ic_S2_P5E.1_K5.1_C5.1_H5.1_A5.1_[T6A]_[A7T]_F5.1_[T8C]_[T9G]_[A10C]_T5.1 (ssRNA) RNA: UUUGAUUAAUAUGAUAUCGUUCUUUCUUGUAUAUCGCUUCUUUCUCGAUAUCAUAUUAAUCUUU | 21.9 |
| Ic_S2_P5E.1_K5.1_C5.1_H5.1_A5.1_[T5C]_[T6A]_[A7G]_F5.1_[T8C]_[T9C]_T5.1 (ssRNA) RNA: UUUGAUUAAUAUGAUAUCGUUCUUUCUUGUACAGCCAUUCUUUCUCGAUAUCAUAUUAAUCUUU | 119 |
| Ic_S2_P5E.1_K5.1_C5.1_H5.1_A5.1_[T5A]_[A7C]_F5.1_[T8C]_[T9C]_T5.1 (ssRNA) RNA: UUUGAUUAAUAUGAUAUCGUUCUUUCUUGUAAUCCCAUUCUUUCUCGAUAUCAUAUUAAUCUUU | 669 |
| Ic_S2_P5E.1_K5.1_C5.1_H5.1_A5.1_[T6C]_F5.1_[T8A]_[T9A]_[A10C]_T5.1 (ssRNA) RNA: UUUGAUUAAUAUGAUAUCGUUCUUUCUUGUAUCAAACUUCUUUCUCGAUAUCAUAUUAAUCUUU | 170 |
| Ic_S2_P5E.1_K5.1_C5.1_H5.1_A5.1_F5.1_[T8C]_[T9A]_[A10T]_T5.1 (ssRNA) RNA: UUUGAUUAAUAUGAUAUCGUUCUUUCUUGUAUUACAUUUCUUUCUCGAUAUCAUAUUAAUCUUU | 444 |
| Ic_S2_P5E.1_K5.1_C5.1_H5.1_A5.1_[T5G]_F5.1_[T8A]_[T9A]_T5.1 (ssRNA) RNA: UUUGAUUAAUAUGAUAUCGUUCUUUCUUGUAGUAAAAUUCUUUCUCGAUAUCAUAUUAAUCUUU | 656 |
| Ic_S2_P5E.1_K5.1_C5.1_H5.1_A5.1_[T6G]_[A7T]_F5.1_[T8C]_[T9A]_[A10C]_T5.1 (ssRNA) RNA: UUUGAUUAAUAUGAUAUCGUUCUUUCUUGUAUGUCACUUCUUUCUCGAUAUCAUAUUAAUCUUU | 293 |
| UCUCUUUGUAUAUCUUCUCUU (ssRNA) [Ib_S1_P4E.1_K4.1_C4.1_H4.1_A4.1_F4.1_[T8C]_[A9T]_T4.1] | 13.4 |
| UCUCUUUGUAUAUACUCUCUU (ssRNA) [Ib_S1_P4E.1_K4.1_C4.1_H4.1_A4.1_F4.1_[T8A]_[A9C]_T4.1] | 8.2 |
| UCUCUUUAUAUAUGAUCUCUU (ssRNA) [Ib_S1_P4E.1_K4.1_C4.1_H4.1_[G2A]_A4.1_F4.1_[T8G]_T4.1] | > 2300 |
| Ic_S2_P4E.1_K4.1_C4.1_H4.1_A4.1_[A6T]_[T7G]_F4.1_[T8G]_[A9C]_T4.1 (ssRNA) RNA: UUUGAUUAAUAUGAUAUCGUUCUUUCUUGUAUUGGCUUCUUUCUCGAUAUCAUAUUAAUCUUU | > 2300 |
| Ic_S2_P4E.1_K4.1_C4.1_H4.1_A4.1_[A6T]_[T7G]_F4.1_[T8G]_[A9T]_T4.1 (ssRNA) RNA: UUUGAUUAAUAUGAUAUCGUUCUUUCUUGUAUUGGUUUCUUUCUCGAUAUCAUAUUAAUCUUU | 1200 |
| Ic_S2_P4E.1_K4.1_C4.1_H4.1_A4.1_[A6T]_[T7G]_F4.1_[A9C]_T4.1 (ssRNA) RNA: UUUGAUUAAUAUGAUAUCGUUCUUUCUUGUAUUGUCUUCUUUCUCGAUAUCAUAUUAAUCUUU | 127 |
| Ic_S2_P4E.1_K4.1_C4.1_H4.1_A4.1_[T7C]_F4.1_[T8C]_[A9C]_T4.1 (ssRNA) RNA: UUUGAUUAAUAUGAUAUCGUUCUUUCUUGUAUACCCUUCUUUCUCGAUAUCAUAUUAAUCUUU | 31.3 |
| Ic_S2_P4E.1_K4.1_C4.1_H4.1_A4.1_[T7C]_F4.1_[T8A]_[A9T]_T4.1 (ssRNA) RNA: UUUGAUUAAUAUGAUAUCGUUCUUUCUUGUAUACAUUUCUUUCUCGAUAUCAUAUUAAUCUUU | 16.4 |
| Ic_S2_P4E.1_K4.1_C4.1_H4.1_A4.1_[A6T]_[T7A]_F4.1_[T8A]_[A9T]_T4.1 (ssRNA) RNA: UUUGAUUAAUAUGAUAUCGUUCUUUCUUGUAUUAAUUUCUUUCUCGAUAUCAUAUUAAUCUUU | 78.2 |
| Ic_S2_P4E.1_K4.1_C4.1_H4.1_A4.1_[T7G]_F4.1_[T8C]_[A9C]_T4.1 (ssRNA) RNA: UUUGAUUAAUAUGAUAUCGUUCUUUCUUGUAUAGCCUUCUUUCUCGAUAUCAUAUUAAUCUUU | 53.8 |
| Ic_S2_P4E.1_K4.1_C4.1_H4.1_A4.1_[A6T]_F4.1_[T8C]_[A9C]_T4.1 (ssRNA) RNA: UUUGAUUAAUAUGAUAUCGUUCUUUCUUGUAUUUCCUUCUUUCUCGAUAUCAUAUUAAUCUUU | 52.7 |

| Binder | Kd [nM] |
| --- | --- |
| Ic_S2_P4E.1_K4.1_C4.1_H4.1_A4.1_[A6T]_[T7C]_F4.1_[T8A]_[A9G]_T4.1 (ssRNA) RNA: UUUGAUUAAUAUGAUAUCGUUCUUUCUUGUAUUCAGUUCUUUCUCGAUAUCAUAUUAAUCUUU | 350 |
| Ic_S2_P4E.1_K4.1_C4.1_H4.1_A4.1_[A6T]_[T7G]_F4.1_[T8C]_[A9T]_T4.1 (ssRNA) RNA: UUUGAUUAAUAUGAUAUCGUUCUUUCUUGUAUUGCUUUCUUUCUCGAUAUCAUAUUAAUCUUU | 536 |
| Ic_S2_P4E.1_K4.1_C4.1_H4.1_A4.1_[A6T]_[T7C]_F4.1_[A9C]_T4.1 (ssRNA) RNA: UUUGAUUAAUAUGAUAUCGUUCUUUCUUGUAUUCUCUUCUUUCUCGAUAUCAUAUUAAUCUUU | 12.7 |
| Ic_S2_P4E.1_K4.1_C4.1_H4.1_A4.1_[A6T]_[T7A]_F4.1_[T8C]_[A9G]_T4.1 (ssRNA) RNA: UUUGAUUAAUAUGAUAUCGUUCUUUCUUGUAUUACGUUCUUUCUCGAUAUCAUAUUAAUCUUU | 93.7 |
| Ic_S2_P4E.1_K4.1_C4.1_H4.1_A4.1_[A6T]_[T7A]_F4.1_[A9G]_T4.1 (ssRNA) RNA: UUUGAUUAAUAUGAUAUCGUUCUUUCUUGUAUUAUGUUCUUUCUCGAUAUCAUAUUAAUCUUU | 4.55 |
| Ic_S2_P4E.1_K4.1_C4.1_H4.1_A4.1_F4.1_T4.1 (ssRNA) RNA: UUUGAUUAAUAUGAUAUCGUUCUUUCUUGUAUAUUAUUCUUUCUCGAUAUCAUAUUAAUCUUU | 0.224 |
| Ic_S2_P4E.1_K4.1_C4.1_H4.1_A4.1_[T7C]_F4.1_[T8C]_[A9T]_T4.1 (ssRNA) RNA: UUUGAUUAAUAUGAUAUCGUUCUUUCUUGUAUACCUUUCUUUCUCGAUAUCAUAUUAAUCUUU | 15.8 |
| Ic_S2_P4E.1_K4.1_C4.1_H4.1_A4.1_[T7C]_F4.1_[T8G]_[A9C]_T4.1 (ssRNA) RNA: UUUGAUUAAUAUGAUAUCGUUCUUUCUUGUAUACGCUUCUUUCUCGAUAUCAUAUUAAUCUUU | 55.7 |
| Ic_S2_P4E.1_K4.1_C4.1_H4.1_A4.1_[A6T]_[T7C]_F4.1_[T8G]_[A9T]_T4.1 (ssRNA) RNA: UUUGAUUAAUAUGAUAUCGUUCUUUCUUGUAUUCGUUUCUUUCUCGAUAUCAUAUUAAUCUUU | 112 |
| Ic_S2_P4E.1_K4.1_C4.1_H4.1_A4.1_[A6T]_[T7G]_F4.1_[T8C]_[A9C]_T4.1 (ssRNA) RNA: UUUGAUUAAUAUGAUAUCGUUCUUUCUUGUAUUGCCUUCUUUCUCGAUAUCAUAUUAAUCUUU | 645 |
| Ic_S2_P4E.1_K4.1_C4.1_H4.1_A4.1_[A6T]_[T7C]_F4.1_[T8A]_T4.1 (ssRNA) RNA: UUUGAUUAAUAUGAUAUCGUUCUUUCUUGUAUUCAAUUCUUUCUCGAUAUCAUAUUAAUCUUU | 201 |
| Ic_S2_P4E.1_K4.1_C4.1_H4.1_A4.1_[A6T]_F4.1_[T8C]_[A9T]_T4.1 (ssRNA) RNA: UUUGAUUAAUAUGAUAUCGUUCUUUCUUGUAUUUCUUUCUUUCUCGAUAUCAUAUUAAUCUUU | 21.7 |
| Ic_S2_P4E.1_K4.1_C4.1_H4.1_A4.1_[A6T]_[T7C]_F4.1_[T8A]_[A9T]_T4.1 (ssRNA) RNA: UUUGAUUAAUAUGAUAUCGUUCUUUCUUGUAUUCAUUUCUUUCUCGAUAUCAUAUUAAUCUUU | 89.9 |
| Ic_S2_P4E.1_K4.1_C4.1_H4.1_A4.1_[A6T]_[T7C]_F4.1_[T8C]_[A9G]_T4.1 (ssRNA) RNA: UUUGAUUAAUAUGAUAUCGUUCUUUCUUGUAUUCCGUUCUUUCUCGAUAUCAUAUUAAUCUUU | 168 |
| Ic_S2_P4E.1_K4.1_C4.1_H4.1_A4.1_[A6T]_F4.1_[T8G]_[A9C]_T4.1 (ssRNA) RNA: UUUGAUUAAUAUGAUAUCGUUCUUUCUUGUAUUUGCUUCUUUCUCGAUAUCAUAUUAAUCUUU | 195 |
| Ic_S2_P4E.1_K4.1_C4.1_H4.1_A4.1_[A6T]_F4.1_[T8A]_[A9T]_T4.1 (ssRNA) RNA: UUUGAUUAAUAUGAUAUCGUUCUUUCUUGUAUUUAUUUCUUUCUCGAUAUCAUAUUAAUCUUU | 9.81 |
| Ic_S2_P4E.1_K4.1_C4.1_H4.1_A4.1_[A6T]_[T7G]_F4.1_[A9T]_T4.1 (ssRNA) RNA: UUUGAUUAAUAUGAUAUCGUUCUUUCUUGUAUUGUUUUCUUUCUCGAUAUCAUAUUAAUCUUU | 57 |
| Ic_S2_P4E.1_K4.1_C4.1_H4.1_A4.1_[A6T]_[T7A]_F4.1_[T8G]_[A9C]_T4.1 (ssRNA) RNA: UUUGAUUAAUAUGAUAUCGUUCUUUCUUGUAUUAGCUUCUUUCUCGAUAUCAUAUUAAUCUUU | 685 |
| Ic_S2_P4E.1_K4.1_C4.1_H4.1_A4.1_[A6T]_[T7C]_F4.1_[T8A]_[A9C]_T4.1 (ssRNA) RNA: UUUGAUUAAUAUGAUAUCGUUCUUUCUUGUAUUCACUUCUUUCUCGAUAUCAUAUUAAUCUUU | 595 |
| Ic_S2_P4E.1_K4.1_C4.1_H4.1_A4.1_[A6T]_[T7G]_F4.1_[T8C]_T4.1 (ssRNA) RNA: UUUGAUUAAUAUGAUAUCGUUCUUUCUUGUAUUGCAUUCUUUCUCGAUAUCAUAUUAAUCUUU | 742 |
| Ic_S2_P4E.1_K4.1_C4.1_H4.1_A4.1_[T7C]_F4.1_[T8A]_[A9C]_T4.1 (ssRNA) RNA: UUUGAUUAAUAUGAUAUCGUUCUUUCUUGUAUACACUUCUUUCUCGAUAUCAUAUUAAUCUUU | 60.4 |
| Ic_S2_P4E.1_K4.1_C4.1_H4.1_A4.1_[A6T]_F4.1_[T8A]_[A9C]_T4.1 (ssRNA) RNA: UUUGAUUAAUAUGAUAUCGUUCUUUCUUGUAUUUACUUCUUUCUCGAUAUCAUAUUAAUCUUU | 106 |
| Ic_S2_P4E.1_K4.1_C4.1_H4.1_A4.1_[A6T]_[T7C]_F4.1_[T8C]_[A9C]_T4.1 (ssRNA) RNA: UUUGAUUAAUAUGAUAUCGUUCUUUCUUGUAUUCCCUUCUUUCUCGAUAUCAUAUUAAUCUUU | 162 |
